Source: the supplement of paper PMC9112550, “Optimization of the antimicrobial peptide Bac7 by deep mutational scanning” (BMC Biology, 2022)

System: Escherichia coli TOP10
Experiment: shrunken log2 fold change of peptide-encoding DNA abundance (4.5 h post-induction vs induction); higher = less antimicrobial activity (less host growth inhibition)
Conditions: time post-induction: 4.5 h; library: site-saturation at positions 5, 18, 19, 20
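Note: peptides expressed intracellularly from a pBAD plasmid library in pooled LB shake-flask culture, induced with 0.3% L-arabinose, DNA abundance read by NGS, three biological replicates, DESeq2 with apeglm shrinkage.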

In order of rising “shrunken log2 fold change” value:
1. RRIRCRPPRLPRPRPRPYYEPRP  -1.27
2. RRIRCRPPRLPRPRPRPYWIPRP  -1.17
3. RRIRCRPPRLPRPRPRPYYFPRP  -1.08
4. RRIRDRPPRLPRPRPRPFYYPRP  -0.899
5. RRIRCRPPRLPRPRPRPYTRPRP  -0.669
6. RRIRDRPPRLPRPRPRPDHHPRP  -0.616
7. RRIRCRPPRLPRPRPRPYTMPRP  -0.382
8. RRIRCRPPRLPRPRPRPYVFPRP  -0.362
9. RRIRDRPPRLPRPRPRPFLPPRP  -0.358
10. RRIRDRPPRLPRPRPRPFFLPRP  -0.261
11. RRIRDRPPRLPRPRPRPCHIPRP  -0.251
12. RRIRDRPPRLPRPRPRPFKQPRP  -0.235
13. RRIRDRPPRLPRPRPRPFLKPRP  -0.212
14. RRIRDRPPRLPRPRPRPCKWPRP  -0.203
15. RRIRDRPPRLPRPRPRPDYGPRP  -0.181
16. RRIRDRPPRLPRPRPRPFSQPRP  -0.172
17. RRIRDRPPRLPRPRPRPGIKPRP  -0.165
18. RRIRCRPPRLPRPRPRPYVGPRP  -0.163
19. RRIRDRPPRLPRPRPRPDKVPRP  -0.159
20. RRIRCRPPRLPRPRPRPYWPPRP  -0.158
21. RRIRDRPPRLPRPRPRPGLMPRP  -0.152
22. RRIRDRPPRLPRPRPRPCKCPRP  -0.147
23. RRIRDRPPRLPRPRPRPFPRPRP  -0.135
24. RRIRDRPPRLPRPRPRPDNYPRP  -0.117
25. RRIRDRPPRLPRPRPRPANIPRP  -0.114
26. RRIRDRPPRLPRPRPRPDTSPRP  -0.114
27. RRIRDRPPRLPRPRPRPDNHPRP  -0.107
28. RRIRDRPPRLPRPRPRPDNTPRP  -0.103
29. RRIRDRPPRLPRPRPRPFMWPRP  -0.102
30. RRIRDRPPRLPRPRPRPGPIPRP  -0.0864
31. RRIRDRPPRLPRPRPRPASYPRP  -0.0767
32. RRIRDRPPRLPRPRPRPGKHPRP  -0.0728
33. RRIRDRPPRLPRPRPRPATVPRP  -0.0689
34. RRIRDRPPRLPRPRPRPGNQPRP  -0.0686
35. RRIRDRPPRLPRPRPRPFYWPRP  -0.0675
36. RRIRDRPPRLPRPRPRPFDKPRP  -0.0665
37. RRIRDRPPRLPRPRPRPDKLPRP  -0.0536
38. RRIRDRPPRLPRPRPRPCYGPRP  -0.0515
39. RRIRDRPPRLPRPRPRPDYEPRP  -0.0367
40. RRIRDRPPRLPRPRPRPGQNPRP  -0.0354
41. RRIRDRPPRLPRPRPRPFVTPRP  -0.0344
42. RRIRDRPPRLPRPRPRPCNSPRP  -0.0276
43. RRIRDRPPRLPRPRPRPCQLPRP  -0.0273
44. RRIRDRPPRLPRPRPRPFASPRP  -0.0205
45. RRIRDRPPRLPRPRPRPEKRPRP  -0.0167
46. RRIRDRPPRLPRPRPRPDIHPRP  -0.0156
47. RRIRDRPPRLPRPRPRPDSEPRP  -0.0121
48. RRIRDRPPRLPRPRPRPDHMPRP  -0.0107
49. RRIRDRPPRLPRPRPRPGESPRP  -0.00997
50. RRIRDRPPRLPRPRPRPEHDPRP  -0.0084
51. RRIRDRPPRLPRPRPRPDVYPRP  -0.00822
52. RRIRDRPPRLPRPRPRPECQPRP  -0.00804
53. RRIRDRPPRLPRPRPRPEYYPRP  -0.00627
54. RRIRDRPPRLPRPRPRPAKIPRP  -0.00511
55. RRIRDRPPRLPRPRPRPEKSPRP  -0.00264
56. RRIRDRPPRLPRPRPRPEETPRP  -0.00131
57. RRIRDRPPRLPRPRPRPDYWPRP  -0.00116
58. RRIRDRPPRLPRPRPRPCPIPRP  -0.00104
59. RRIRDRPPRLPRPRPRPGLHPRP  -6.57e-05
60. RRIRDRPPRLPRPRPRPFWLPRP  0.00235
61. RRIRDRPPRLPRPRPRPDFKPRP  0.00362
62. RRIRDRPPRLPRPRPRPDSMPRP  0.00619
63. RRIRDRPPRLPRPRPRPGMFPRP  0.00675
64. RRIRDRPPRLPRPRPRPETFPRP  0.00902
65. RRIRDRPPRLPRPRPRPGMSPRP  0.0134
66. RRIRDRPPRLPRPRPRPEHEPRP  0.017
67. RRIRDRPPRLPRPRPRPCSNPRP  0.0176
68. RRIRDRPPRLPRPRPRPFKLPRP  0.0184
69. RRIRDRPPRLPRPRPRPETDPRP  0.0208
70. RRIRDRPPRLPRPRPRPEDQPRP  0.0219
71. RRIRDRPPRLPRPRPRPAQKPRP  0.0225
72. RRIRDRPPRLPRPRPRPCLIPRP  0.0225
73. RRIRDRPPRLPRPRPRPASSPRP  0.0229
74. RRIRDRPPRLPRPRPRPCENPRP  0.0231
75. RRIRDRPPRLPRPRPRPCVNPRP  0.0261
76. RRIRDRPPRLPRPRPRPCVSPRP  0.0278
77. RRIRDRPPRLPRPRPRPFDHPRP  0.0299
78. RRIRDRPPRLPRPRPRPDSKPRP  0.0365
79. RRIRDRPPRLPRPRPRPGRQPRP  0.0393
80. RRIRDRPPRLPRPRPRPGPLPRP  0.0434
81. RRIRDRPPRLPRPRPRPGQRPRP  0.0563
82. RRIRDRPPRLPRPRPRPEHGPRP  0.0582
83. RRIRDRPPRLPRPRPRPEDRPRP  0.0616
84. RRIRDRPPRLPRPRPRPAWKPRP  0.0693
85. RRIRDRPPRLPRPRPRPDVFPRP  0.07
86. RRIRDRPPRLPRPRPRPDTEPRP  0.0738
87. RRIRDRPPRLPRPRPRPACNPRP  0.0741
88. RRIRDRPPRLPRPRPRPCPWPRP  0.0761
89. RRIRDRPPRLPRPRPRPGGMPRP  0.0874
90. RRIRDRPPRLPRPRPRPDWVPRP  0.0881
91. RRIRDRPPRLPRPRPRPDYMPRP  0.0916
92. RRIRDRPPRLPRPRPRPAVNPRP  0.092
93. RRIRDRPPRLPRPRPRPAPKPRP  0.0948
94. RRIRDRPPRLPRPRPRPGIVPRP  0.0969
95. RRIRDRPPRLPRPRPRPAKHPRP  0.0985
96. RRIRDRPPRLPRPRPRPAILPRP  0.099
97. RRIRDRPPRLPRPRPRPCVIPRP  0.1
98. RRIRDRPPRLPRPRPRPCLEPRP  0.103
99. RRIRDRPPRLPRPRPRPECKPRP  0.109
100. RRIRDRPPRLPRPRPRPFEWPRP  0.109
101. RRIRDRPPRLPRPRPRPAFCPRP  0.111
102. RRIRDRPPRLPRPRPRPDILPRP  0.111
103. RRIRDRPPRLPRPRPRPAWFPRP  0.118
104. RRIRDRPPRLPRPRPRPERTPRP  0.12
105. RRIRDRPPRLPRPRPRPAKCPRP  0.124
106. RRIRDRPPRLPRPRPRPGGIPRP  0.129
107. RRIRDRPPRLPRPRPRPARIPRP  0.136
108. RRIRDRPPRLPRPRPRPGAYPRP  0.136
109. RRIRDRPPRLPRPRPRPCSCPRP  0.173
110. RRIRDRPPRLPRPRPRPCMAPRP  0.203
111. RRIRDRPPRLPRPRPRPGLGPRP  0.208
112. RRIRDRPPRLPRPRPRPGGQPRP  0.211
113. RRIRDRPPRLPRPRPRPACRPRP  0.219
114. RRIRDRPPRLPRPRPRPCARPRP  0.219
115. RRIRDRPPRLPRPRPRPAWLPRP  0.266
116. RRIRDRPPRLPRPRPRPAFDPRP  0.284
117. RRIRDRPPRLPRPRPRPEHAPRP  0.294
118. RRIRDRPPRLPRPRPRPEFDPRP  0.375
119. RRIRDRPPRLPRPRPRPERCPRP  0.426
120. RRIRDRPPRLPRPRPRPGSDPRP  0.461
121. RRIRDRPPRLPRPRPRPDPGPRP  0.506
122. RRIRDRPPRLPRPRPRPAGAPRP  0.509
123. RRIRDRPPRLPRPRPRPAGDPRP  0.523
124. RRIRDRPPRLPRPRPRPGCFPRP  0.565
125. RRIRDRPPRLPRPRPRPCMWPRP  0.569
126. RRIRDRPPRLPRPRPRPACEPRP  0.58
127. RRIRDRPPRLPRPRPRPARMPRP  0.584
128. RRIRDRPPRLPRPRPRPGCLPRP  0.589
129. RRIRDRPPRLPRPRPRPGCVPRP  0.616
130. RRIRDRPPRLPRPRPRPAIFPRP  0.617
131. RRIRDRPPRLPRPRPRPADDPRP  0.637
132. RRIRDRPPRLPRPRPRPDPDPRP  0.671
133. RRIRDRPPRLPRPRPRPGELPRP  0.684
134. RRIRDRPPRLPRPRPRPAWAPRP  0.713
135. RRIRDRPPRLPRPRPRPEQMPRP  0.861
136. RRIRDRPPRLPRPRPRPEFWPRP  1.02
137. RRIRDRPPRLPRPRPRPEGSPRP  1.06
138. RRIRDRPPRLPRPRPRPEWRPRP  1.08
139. RRIRDRPPRLPRPRPRPCILPRP  1.16
140. RRIRDRPPRLPRPRPRPECVPRP  1.3
141. RRIRDRPPRLPRPRPRPALAPRP  1.32
142. RRIRDRPPRLPRPRPRPDEDPRP  1.46
143. RRIRDRPPRLPRPRPRPEGPPRP  1.51
144. RRIRDRPPRLPRPRPRPEFAPRP  1.54
145. RRIRDRPPRLPRPRPRPESWPRP  1.58
146. RRIRDRPPRLPRPRPRPAAQPRP  1.65
147. RRIRDRPPRLPRPRPRPDAAPRP  1.67
148. RRIRDRPPRLPRPRPRPEMWPRP  2.04
149. RRIRDRPPRLPRPRPRPELWPRP  2.17
150. RRIRDRPPRLPRPRPRPDWDPRP  4.78
